Biological target: T1, RsgI2-PD C-terminal fragment after autocleavage at Asn97-Pro98 (Clostridium thermocellum DSM 1313, UniProt A3DC27 98-259)
T1 sequence (looked up): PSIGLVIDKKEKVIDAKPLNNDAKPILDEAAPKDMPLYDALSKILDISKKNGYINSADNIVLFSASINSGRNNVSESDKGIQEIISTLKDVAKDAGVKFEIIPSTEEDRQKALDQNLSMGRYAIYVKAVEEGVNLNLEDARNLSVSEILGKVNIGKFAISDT
Assay: crystal structure

Binder: SQEYAYIDVDIN (peptide, UniProt A3DC27 86-97, looked up) [RsgI2-PD N-terminal fragment after autocleavage at Asn97-Pro98 (β1 strand chain, twelve residues)]
- binding result: binds

Source: PMC10328401 (Science Advances, 2023)
